Binding result and Kd data for 5 molecules are collected here from patent US20240229045, “APTAMER FOR SPECIFICALLY RECOGNIZING SOLUBLE ST2 PROTEIN AND APPLICATION OF THE SAME” (BEIJING INSTITUTE OF HEART, LUNG AND BLOOD VESSEL DISEASES, published 2024).

The target of series [1] is T1, soluble ST2 (sST2, IL1RL1 soluble isoform) (Homo sapiens, UniProt Q01638-2 Q01638-2:19-328). The series is described as follows: EMSA; strong binding; room temperature 30 min. As to the method:
According to the experimental formula shown in Table 4, the aptamer was added to the buffer solution and nuclease-free water, heated at 95° C. for 10 minutes, quenched on ice for 10 minutes, and room temperature for 10 minutes.
The above DNA solution and sST2 protein were slowly mixed to a final volume of 20 μL, and a sample containing only aptamer and no protein was used as a negative control, and incubated with rotation at room temperature for 30 minutes.

Series [2] has as its target T1, soluble ST2 (sST2, IL1RL1 soluble …). The series is described as follows: fiber-optic fluorescence, sST2 immobilised; 137 mM NaCl, 2.7 mM KCl, phosphate.

T1 sequence (Q01638 other isoform, or with tags, fused parts or gaps): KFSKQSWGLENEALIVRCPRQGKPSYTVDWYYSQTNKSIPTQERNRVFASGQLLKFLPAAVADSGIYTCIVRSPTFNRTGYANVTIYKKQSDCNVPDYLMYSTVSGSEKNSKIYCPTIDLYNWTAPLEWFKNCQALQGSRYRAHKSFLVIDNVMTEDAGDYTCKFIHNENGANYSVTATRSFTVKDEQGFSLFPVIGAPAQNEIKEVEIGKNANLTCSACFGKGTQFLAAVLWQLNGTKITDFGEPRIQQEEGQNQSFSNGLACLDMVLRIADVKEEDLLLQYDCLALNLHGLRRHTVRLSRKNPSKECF

For the molecule TCCATCCACTCGGCGCCACGCGGTTTCTCCAGATT (ssDNA) [Apt8], the binding result in series [1] is given as “binds”.

In general, Kd refers to a measure of binding affinity in units of concentration. Lower therefore signals higher affinity. TCCATCCACTCGGGGCGGGGGCTCGTGCTCTATTTC (ssDNA) [Apt4] yielded a Kd in series [2] of 127 nM.

As to TCCATCCACTCGGGGCTAGAAGCCGTGAGAATCTG (ssDNA) [Apt1], the binding result in series [1] is on record as “binds”.

As for TCCATCCACTCGGGCCCTAGGGCGTGTATGTCCAT (ssDNA) [Apt2], in series [1], the binding result is reported as “binds”.

For the molecule TCCATCCACTCGGCCTACTAAGGGTTTCGTTCACC (ssDNA) [Apt3], in series [1], the binding result is “binds”.
